Assay results as given in patent US20160137713A1 (HANALL BIOPHARMA, published 2016).

Tests used:
[1] = target: T1, soluble human FcRn (human, UniProt P55899 24-297; P61769 21-119); assay: SPR, shFcRn immobilised, pH 6.0
T1 construct: extracellular domain;mature; Non-covalent heterodimer secreted by 293 cells, purified on IgG Sepharose; also called shFcRn; soluble FcRn
Protocol: (§1) Measurement of the binding ability of antibody by SPR was performed by immobilizing shFcRn as a ligand onto a Proteon GLC chip (Bio-Rad) and measuring affinity.
(§2) The analysis of ligand and analyte was performed using a Proteon GLC chip, and the interaction was analyzed at a pH of 6.0 and a pH of 7.4. Immobilization of the ligand was activated by injecting a 1:1 mixture of 1×EDAC (EDC) and 1× Surfo-NHS for 5 minutes. shFcRn was diluted in 10 mM sodium acetate (pH 4.5) at a concentration of 25 μg/ml and added to the ligand at a flow rate of 30 μl/min for 5 minutes. […] The analyte antibody was allowed to flow on the immobilized chip at a flow rate of 30 μl/min. […] The association time of the analyte antibody was 240 seconds, and the dissociation time was 600 seconds. Regeneration of the chip was performed by injecting 10 mM glycine (pH 2.5) at a flow rate of 100 μl/min for 18 seconds. Based on sensorgrams resulting from six concentrations of the analyte, kinetics analysis was performed using Proteon XPR36 software.

[2] = target: T1, soluble human FcRn; assay: SPR, shFcRn immobilised, pH 7.4
Protocol: as §1, §2

[3] = target: T2, human FcRn on HEK293 cells (human, UniProt P55899 24-365; P61769 21-119); assay: FACS competition on hFcRn HEK293 cells at pH 6.0; remaining binding of 100 nM Alexa488-labeled hIgG1 (m14) with 500 nM competitor antibody, percent of the tube without competitor
T2 construct: whole, on cells; also called hFcRn
Protocol: In stable HEK293 cells expressing human FcRn, the blocking of the antibody against FcRn was analyzed by FACS. The antibody was diluted in binding buffer (PBS pH 6.0, 10 mM EDTA) at concentrations of 2,000 nM, […] to make 50 μl of dilutions, which were dispensed into tubes. […] Stable HEK293 cells were diluted in binding buffer at a concentration of 2,500,000 cells/ml, and 40 μl of the cell dilution was added to each of the labeled antibody-containing tubes. Thus, a final volume of 100 μl contained 100,000 cells, 100 nM labeled antibody and 1000 nM, 500 nM or 250 nM competitor antibody. The cells were washed once with 150 μl of buffer (pH 6.0), and pellets were obtained therefrom and resuspended in 150 μl of buffer having pH difference. The suspension was transferred into a tube for FACS analysis. The cells were analyzed by FACS using BD FACSDiva™ v6.1.3 software (BD Bioscience). The results of the analysis were expressed as mean fluorescence intensity (MFI).
The MFI of the test group was processed after subtracting the MFI (background signal) measured in cells alone.

[4] = target: T3, mouse FcRn on 3T3-L1 cells (mouse, UniProt Q61559 22-365; P01887 21-119); assay: FACS on mouse FcRn-expressing 3T3-L1 cells at pH 6.0 and pH 7.4, FITC anti-human IgG goat antibody; MFI relative to hIgG
T3 construct: whole, on cells; also called NIH3T3L1
T3 sequence (looked up): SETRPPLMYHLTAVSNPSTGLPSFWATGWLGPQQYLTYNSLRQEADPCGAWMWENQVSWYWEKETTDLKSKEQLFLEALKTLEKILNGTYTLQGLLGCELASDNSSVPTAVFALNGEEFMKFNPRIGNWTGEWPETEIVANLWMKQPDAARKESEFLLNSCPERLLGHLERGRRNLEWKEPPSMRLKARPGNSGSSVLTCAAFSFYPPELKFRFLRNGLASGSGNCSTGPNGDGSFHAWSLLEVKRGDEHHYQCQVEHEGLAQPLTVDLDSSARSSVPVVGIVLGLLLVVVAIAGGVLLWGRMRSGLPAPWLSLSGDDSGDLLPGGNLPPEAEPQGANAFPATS
T3 sequence (b2m, looked up): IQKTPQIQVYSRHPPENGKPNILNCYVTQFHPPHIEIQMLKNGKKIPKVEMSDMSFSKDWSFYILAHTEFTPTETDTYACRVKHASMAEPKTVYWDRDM
Protocol: 3T3-L1 cells stably expressing mouse FcRn were cultured in 10% FCS DMEM medium, and then detached from the culture plate by trypsin treatment. The cells were washed three times with cold binding buffer (PBS, pH 6.0 10 mM EDTA), and then diluted in binding buffer at a concentration of 10⁵ cells/ml. 100 μl of the cell dilution was dispensed into each 1.5-ml tube in such a manner that each tube contained 10⁴ cells, and 1 μl of HL161 antibody (1 mg/ml) was added to the dispensed cells. Next, the cells were incubated on ice. As control antibodies, 1 μl of each of rabbit antibody (Santacruz, sc-66893) and human IgG (Abcam, cat#. 409120), which bind to mouse FcRn, was used. The cells were recovered by centrifugation at 4° C. and 4000 rpm for 5 minutes, after which the cells were washed once with binding buffer and resuspended in 100 μl of binding buffer. As FITC-conjugated secondary antibody, 1 μl of anti-human IgG goat antibody (Invitrogen, Cat*. A11013) was added to the cells. In the case of the experiment using anti-mouse FcRn rabbit antibody, the anti-rabbit antibody was incubated with the cells on ice for 1 hour, and then the cells were recovered by centrifugation at 4° C. and 700 g for 5 minutes, washed once with binding buffer, resuspended in 400 ul of binding buffer and analyzed by FACS to examine the cross-reactivity of the HL161 antibodies with mouse FcRn (see FIG. 4). An experiment at a pH of 7.4 was performed using binding buffer at a pH of 7.4 in the same manner as the experiment using binding buffer at a pH of 6.0. The degree of the binding of each antibody to mouse FcRn was presented as relative MFI based on human IgG.

koff [1]: 0.00034 s⁻¹
kon [1]: 970000 M⁻¹ s⁻¹
koff [2]: 0.00045 s⁻¹
kon [2]: 500000 M⁻¹ s⁻¹
Relative MFI(%) at 500nM [3]: 60.4%
binding result [4]: no binding
B1: HL161-11H (antibody, V domains shown)
VH: QMQLVESGGGLVQPGRSLRLSCAASGFTFSSYAMHWVRQAPGKGLEWVAVISYDGSNKYYADSVKGRFTISRDNSKNTLYLQMNSLRSEDTAVYYCSRGSGGRDAFDVWGQGTMITVSS
VL: DIQMTQSPSTLSASVGDRVTITCRASQSISSRLAWYQQKPGKAPKLLIYKASSLETGVPSRFSGSGSGTEFTLTISSLQPDDFATYYCQQTNSFPLTFGGGTKVEIK
notes: Whole human IgG from pNATAB vectors
